{
  "source": "patent US12123876B2",
  "about": "“Antibody binding to HEG1 and use of the antibody for detection and treatment of mesothelioma” (Kanagawa Prefectural Hospital Organization, priority 2016, dated 2024)",
  "molecules": {"B1": {"name": "SKM9-2 antibody: mouse monoclonal IgG1 kappa antibody binding glycosylated HEG1; heavy chain SEQ ID NO: 2, light chain SEQ ID NO: 4 (antibody, listed as Mus musculus)", "heavy": "MGWSSIILFLVATTTGVHSQVQLQQPGAELVRPGASVKLSCKASGFSFTTYWITWVKQRPGQGLEWIGMIHPSDSETRLSQTFKDKATLTVDKSSNTAYMQFSSPTSEDSAVYYCVRDFDVWGAGTTVTVSSAKTTPPSVYPLAPGSAAQTNSMVTLGCLVKGYFPEPVTVTWNSGSLSSGVHTFPAVLQSDLYTLSSSVTVPSSTWPSETVTCNVAHPASSTKVDKKIVPRDCGCKPCICTVPEVSSVFIFPPKPKDVLTITLTPKVTCVVVDISKDDPEVQFSWFVDDVEVHTAQTQPREEQFNSTFRSVSELPIMHQDWLNGKEFKCRVNSAAFPAPIEKTISKTKGRPKAPQVYTIPPPKEQMAKDKVSLTCMITDFFPEDITVEWQWNGQPAENYKNTQPIMDTDGSYFVYSKLNVQKSNWEAGNTFTCSVLHEGLHNHHTEKSLSHSPGK", "light": "MKLPVRLLVLMFWIPASISDVLMTQTPLSLPVSLGDQASISCRSSQNIVHNNGNTYLGWYLQKPGQSPKLLIFKVSNRFSGVPDRFSGSGSGTDFTLKISRVEAEDLGVYYCFQGSHIPRTFGGGTRLEIKRADAAPTVSIFPPSSEQLTSGGASVVCFLNNFYPKDINVKWKIDGSERQNGVLNSWTDQDSKDSTYSMSSTLTLTKDEYERHNSYTCEATHKTSTSPIVKSFNRNEC"}},
  "key": {"[1]": {"tested_on": "formalin-fixed tissue sections of cancers except mesothelioma", "experiment": "Hybridoma screening by immunostaining of formalin-fixed tissue sections", "details": "hybridoma culture supernatant"}, "mesothelioma": {"tested_on": "mesothelioma", "experiment": "Immunohistological staining of mesothelioma tissue sections", "parameters": "species or system human", "from_the_text": "For the detection of mesothelioma according to the present invention, the antibody according to the present invention or an antigen-binding fragment thereof is contacted with a sample. In the case that a sample separated from a living body such as cells, a tissue, or a tissue section is used, antibody reaction can be detected by using a method well known to those skilled in the art (e.g., an immunohistological staining method). If antibody reaction is then observed (e.g., in the case of a positive result), the subject from whom the sample is derived is likely to be affected with mesothelioma. Whether a result for antibody reaction is positive can be determined in accordance with an Allred Score method (see Allred D C et al., Mod Pathol, 11: 155-168, 1998). In the Allred Score method, for example, a total score is calculated from the following equation: Total score (TS)=Proportion score (PS)+Intensity score (IS) If the total score is 3 or more, then it can be determined that the result for reaction is positive. PS and IS can be determined from the following score tables. Score Tables for Allred Score Method Proportion Score, PS • 0: no staining • 1: a proportion of staining of less than 1% • 2: a proportion of staining of 1% or more and less than 10% • 3: a proportion of staining of 10% or more and less than ⅓ • 4: a proportion of staining of ⅓ or more and less than ⅔ • 5: a proportion of staining of ⅔ or more Intensity score, IS • 0: negative • 1: weak staining • 2: intermediate staining • 3: strong staining\n(§1) AMeX-fixed cell precipitates or formalin-fixed tissues were paraffin-embedded to prepare thin sections. Each of the sections was fixed to a microscope slide, and subjected to deparaffinization and dehydration with xylene and ethanol, followed by activation of an antigen under different conditions. Each section was treated with 3% hydrogen peroxide for 5 minutes to deactivate endogenous peroxidase, and then washed with PBS and blocked with 0.5% casein for 10 minutes. After 100 μL of a solution containing a primary antibody was added to each section and treated at room temperature for 2 hours, the section was washed with PBS and allowed to develop color by using a Histofine Simple Stain MAX-PO (Multi) ([…] BIOSCIENCE INC.), Ventana ultraView DAB universal kit (Roche Diagnostics K. K.), or the EnVision+kits. Each section was stained with hematoxylin and then dehydrated, and encapsulated with Malinol (MUTO PURE CHEMICALS CO., LTD.) to observe under a microscope. The conditions for activation of an antigen were as follows: at 98° C. for 40 minutes for calretinin, mesothelin, and the SKM9-2 antigen; and at 95° C. for 64 minutes for cytokeratin 5/6 (CK5/6), podoplanin, and Wilms' tumor gene product 1 (WT-1). The following activation solutions were used: 10 mM Tris buffer (pH 9.0) containing 1 mM ethylenediamine tetraacetate (EDTA) for calretinin, CK5/6, and podoplanin; and 10 mM citrate buffer (pH 6.0) containing 0.1% TWEEN® 20 (polyethylene glycol sorbitan monolaurate, polyoxyethylenesorbitan monolaurate) for WT-1, mesothelin, and the SKM9-2 antigen. The following primary antibodies were used: a rabbit anti-calretinin polyclonal antibody (PAD:DC8) (Life Technologies Japan Ltd., Tokyo, Japan) for calretinin; a mouse anti-cytokeratin 5,6 monoclonal antibody (D5/16B4) ([…] BIOSCIENCE INC.) for CK5/6; a mouse anti-human mesothelin monoclonal antibody (5B2) (Leica Microsystems, Inc., Bannockburn, IL) for mesothelin; a mouse anti-podoplanin monoclonal antibody (D2-40) (Roche Diagnostics K. K.) for podoplanin; and a mouse anti-human WT-1 monoclonal antibody (6F-H2) (Roche Diagnostics K. K.) for WT-1.\nHereinafter, cases that the fraction of cells with scores of 1 or more determined in accordance with the Allred Score method was 10% or more in the cell were determined as positive."}, "[2]": {"tested_on": "healthy tissues without any apparent lesion", "experiment": "Immunohistological staining of normal tissues", "parameters": "species or system human", "experimental": "as §1\nIn addition, the reactivity of the SKM9-2 antibody with normal tissues was examined by immunohistological staining. Immunostaining was performed by using the SKM9-2 antibody for healthy tissues without any apparent lesion."}, "[3]": {"tested_on": "HEG1 protein on the surface of ACC-MESO4 cells", "experiment": "Flow cytometry of ACC-MESO4 cells with antibody", "format": "cell-based, human", "details": "FITC-labeled anti-mouse IgG, flow cytometer", "experimental": "First, ACC-MESO4 was cultured, and cells adhering to the culture dish were peeled off with a scraper. The cells peeled off were reacted with the SKM9-2 antibody, and then treated with FITC-labeled anti-mouse IgG, and analyzed by using a flow cytometer. […] If the SKM9-2 antibody binds to the extracellular region of HEG1 protein, cells are to be FITC-labeled and thus fluorescence would be observed in flow cytometry."}},
  "data": [
    {"molecule": "B1", "values": [
      {"measurement": "Reactivity with formalin-fixed tissue sections of cancers except mesothelioma", "setting": "[1]", "value": "almost non-reactive"},
      {"measurement": "Staining of well-differentiated papillary mesothelioma (WDPM)", "setting": "mesothelioma; WDPM", "value": "one in one case"},
      {"measurement": "Sensitivity (%)", "setting": "mesothelioma; all mesothelioma types", "value": 91.3, "unit": "%"},
      {"measurement": "Detection of mesothelioma, Biphasic (positive cases/cases)", "setting": "mesothelioma; biphasic mesothelioma", "value": "12/13"},
      {"measurement": "Detection of mesothelioma, Desmoplastic (positive cases/cases)", "setting": "mesothelioma; desmoplastic mesothelioma", "value": "3/4"},
      {"measurement": "Staining of mesothelioma, representative images", "setting": "mesothelioma; epithelial mesothelioma and sarcomatoid mesothelioma", "value": "successfully stained"},
      {"measurement": "Detection of mesothelioma, Epithelial (positive cases/cases)", "setting": "mesothelioma; epithelial mesothelioma, positive = fraction of cells with Allred score 1 or more is 10% or more", "value": "62/66"},
      {"measurement": "Detection of mesothelioma, Sarcomatoid (positive cases/cases)", "setting": "mesothelioma; sarcomatoid mesothelioma", "value": "7/9"},
      {"measurement": "Number of positive cases/number of samples", "setting": "[2]; Bladder and ureter", "value": "0/5"},
      {"measurement": "Number of positive cases/number of samples", "setting": "[2]; Blood vessel, *Some cells were positive", "value": "*5/8"},
      {"measurement": "Number of positive cases/number of samples", "setting": "[2]; Bronchus", "value": "0/12"},
      {"measurement": "Number of positive cases/number of samples", "setting": "[2]; Cerebrum", "value": "0/29"},
      {"measurement": "Number of positive cases/number of samples", "setting": "[2]; Duodenum", "value": "0/2"},
      {"measurement": "Number of positive cases/number of samples", "setting": "[2]; Esophagus", "value": "0/2"},
      {"measurement": "Number of positive cases/number of samples", "setting": "[2]; Gallbladder", "value": "0/5"},
      {"measurement": "Number of positive cases/number of samples", "setting": "[2]; Kidney", "value": "0/10"},
      {"measurement": "Number of positive cases/number of samples", "setting": "[2]; Large intestine", "value": "0/6"},
      {"measurement": "Number of positive cases/number of samples", "setting": "[2]; Liver", "value": "0/8"},
      {"measurement": "Number of positive cases/number of samples", "setting": "[2]; Lung", "value": "0/23"},
      {"measurement": "Number of positive cases/number of samples", "setting": "[2]; Lymph node", "value": "0/4"},
      {"measurement": "Number of positive cases/number of samples", "setting": "[2]; Mammary gland", "value": "0/5"},
      {"measurement": "Number of positive cases/number of samples", "setting": "[2]; Muscle", "value": "0/4"},
      {"measurement": "Number of positive cases/number of samples", "setting": "[2]; Myocardium", "value": "0/12"},
      {"measurement": "Number of positive cases/number of samples", "setting": "[2]; Ovary", "value": "0/4"},
      {"measurement": "Number of positive cases/number of samples", "setting": "[2]; Pancreas", "value": "0/10"},
      {"measurement": "Number of positive cases/number of samples", "setting": "[2]; Pericardium", "value": "1/1"},
      {"measurement": "Number of positive cases/number of samples", "setting": "[2]; Peritoneum", "value": "0/2"},
      {"measurement": "Number of positive cases/number of samples", "setting": "[2]; Pleura", "value": "0/5"},
      {"measurement": "Number of positive cases/number of samples", "setting": "[2]; Prostate", "value": "0/10"},
      {"measurement": "Number of positive cases/number of samples", "setting": "[2]; Stomach", "value": "0/3"},
      {"measurement": "Number of positive cases/number of samples", "setting": "[2]; Testicular serosa", "value": "0/1"},
      {"measurement": "Number of positive cases/number of samples", "setting": "[2]; Testis", "value": "1/5"},
      {"measurement": "Number of positive cases/number of samples", "setting": "[2]; Thyroid", "value": "0/5"},
      {"measurement": "Reactivity with normal tissue cells", "setting": "[2]; normal mesothelial cells other than pericardial mesothelial cells", "value": "Negative"},
      {"measurement": "Reactivity with normal tissue cells", "setting": "[2]; pericardial mesothelial cells", "value": "positive image"},
      {"measurement": "Reactivity with normal tissue cells", "setting": "[2]; seminiferous tubule, one case for the testis", "value": "positive"},
      {"measurement": "Reactivity with normal tissue cells", "setting": "[2]; vascular endothelial cells", "value": "positive image"},
      {"measurement": "Binding to cell surface of ACC-MESO4", "setting": "[3]", "value": "bind to a HEG1 protein part exposed on the surface of the cell membrane"}
    ]}
  ]
}
